{
  "source": "IntAct's records for PubMed 18223036",
  "parents": {"B1": {"name": "Protein pleiotropic regulatory locus 1 (Arabidopsis thaliana (Mouse-ear cress)), Q42384 (parent)", "chain": "MPAPTTEIEPIEAQSLKKLSLKSLKRSLELFSPVHGQFPPPDPEAKQIRLSHKMKVAFGGVEPVVSQPPRQPDRINEQPGPSNALSLAAPEGSKSTQKGATESAIVVGPTLLRPILPKGLNYTGSSGKSTTIIPANVSSYQRNLSTAALMERIPSRWPRPEWHAPWKNYRVIQGHLGWVRSVAFDPSNEWFCTGSADRTIKIWDVATGVLKLTLTGHIEQVRGLAVSNRHTYMFSAGDDKQVKCWDLEQNKVIRSYHGHLSGVYCLALHPTLDVLLTGGRDSVCRVWDIRTKMQIFALSGHDNTVCSVFTRPTDPQVVTGSHDTTIKFWDLRYGKTMSTLTHHKKSVRAMTLHPKENAFASASADNTKKFSLPKGEFCHNMLSQQKTIINAMAVNEDGVMVTGGDNGSIWFWDWKSGHSFQQSETIVQPGSLESEAGIYAACYDNTGSRLVTCEADKTIKMWKEDENATPETHPINFKPPKEIRRF", "partner": "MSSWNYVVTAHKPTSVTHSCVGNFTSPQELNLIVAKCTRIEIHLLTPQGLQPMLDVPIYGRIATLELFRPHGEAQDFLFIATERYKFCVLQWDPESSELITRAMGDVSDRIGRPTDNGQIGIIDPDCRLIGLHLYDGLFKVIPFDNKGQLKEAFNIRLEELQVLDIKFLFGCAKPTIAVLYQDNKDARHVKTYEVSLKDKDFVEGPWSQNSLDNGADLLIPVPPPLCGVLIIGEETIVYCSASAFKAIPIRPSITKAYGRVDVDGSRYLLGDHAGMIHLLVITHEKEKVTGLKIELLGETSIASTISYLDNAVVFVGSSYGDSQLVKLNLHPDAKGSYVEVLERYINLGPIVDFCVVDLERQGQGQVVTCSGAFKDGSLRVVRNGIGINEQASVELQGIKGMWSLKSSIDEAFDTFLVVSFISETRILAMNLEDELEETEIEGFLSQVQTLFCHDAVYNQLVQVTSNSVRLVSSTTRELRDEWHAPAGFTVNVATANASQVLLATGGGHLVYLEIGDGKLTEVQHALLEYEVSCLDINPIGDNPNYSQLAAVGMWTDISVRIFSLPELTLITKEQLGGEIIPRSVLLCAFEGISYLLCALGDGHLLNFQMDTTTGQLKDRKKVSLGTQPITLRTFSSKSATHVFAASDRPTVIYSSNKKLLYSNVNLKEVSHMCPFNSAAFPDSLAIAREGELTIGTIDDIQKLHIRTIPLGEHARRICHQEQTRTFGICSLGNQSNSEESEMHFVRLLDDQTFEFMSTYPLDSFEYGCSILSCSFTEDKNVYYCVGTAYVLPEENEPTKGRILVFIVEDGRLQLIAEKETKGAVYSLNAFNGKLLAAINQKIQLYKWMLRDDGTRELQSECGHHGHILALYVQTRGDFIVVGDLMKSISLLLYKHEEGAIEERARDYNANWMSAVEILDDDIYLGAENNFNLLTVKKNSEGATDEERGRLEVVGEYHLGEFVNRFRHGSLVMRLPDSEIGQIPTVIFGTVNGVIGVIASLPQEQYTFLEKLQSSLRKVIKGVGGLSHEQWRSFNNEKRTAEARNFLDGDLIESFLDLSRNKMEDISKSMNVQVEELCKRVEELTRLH"}},
  "data": [
    {"variants_of": "B1", "conditions": "with ddb1a_arath DDB1A", "values": [
      {"variant": "R290H;R332H", "effect of a mutation on the interaction": "decreasing interaction"}
    ]}
  ]
}
